Source: the supplement of paper PMC9170038

System: MS2 coat protein
Test: apparent KD of MS2 coat protein; designed switch direction (-1 OFF switch, 1 ON switch): 1; higher = weaker reporter binding
Method in brief: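 Designed RNA switches were transcribed on Illumina chips by stalled E. coli RNA polymerase and titrated with SNAP-549-labelled MS2 coat protein from 0.7 or 1.5 nM, doubling to 3 µM. Step length ran from 0.8–1.5 h at the lowest concentration to 10–20 min at the highest. The apparent KD is the median over clusters for each design, from curve-fitted normalised cluster fluorescence.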

[1] = Eterna round: R95, input ligand: FMN 200 uM
[2] = Eterna round: R95, input ligand: microRNA oligo, concentration not stated
[3] = Eterna round: R95, input ligand: none
[4] = input ligand: microRNA oligo, concentration not stated

Sequence | apparent KD of MS2 coat protein [1] [nM] | apparent KD of MS2 coat protein [2] [nM] | apparent KD of MS2 coat protein [3] [nM] | apparent KD of MS2 coat protein (input ligand: FMN 200 uM) [nM] | apparent KD of MS2 coat protein [4] [nM] | apparent KD of MS2 coat protein (input ligand: none) [nM]
AACAAUCUAUCUGAGGAUAUCAUGAAAUAAACAUGAGGAUCACCCAUGUGCAGGAAAACUGCAUAUGAGAAGGCAGAUAGAUUGU [salish99_ss2_r3_058] (puzzle: Same State 2) | 57.7 | 1020 | 1580 | – | – | –
GGUAUCGGCACAGGAUAUGCUAUCCUUUGGGUAGCAGAAGGGUGGACAUGAGGAUCACCCAUGUAGGUGCCAGGGCGUGAGCCC [JL SSNG1 1.87] (Eterna round: R96, puzzle: Same State NG 1) | – | – | – | 2490 | 26.3 | 3550
GGAUGAUAAAUAGGAUAUUAAUUGUAAUUAGGUUAAGAAGGAUUAAUGAUUUAAACGACCAGUUACAUGAGGAUCACCCAUGUU [JR_SSNG1_Sub088] (Eterna round: R96, puzzle: Same State NG 1) | – | – | – | – | 108 | –
ACAUGACAUGAGGAUCACCCAUGUCGAUAAAAGCAAGGAUAUGGGCCCGAGUCGUUCGGACCAGAAGGUGCGUCUC [Orso] (Eterna round: R96, puzzle: Same State 1) | – | – | – | 18.3 | 16.3 | 23.8
AGCUAUCGAAAACGAUAGCAAAAGUAUGUACAUGAGGAUCACCCAUGUCAUGUACAAGCUUUUUGCUCGUCUUAAAA [Zipper 23 - 10] (puzzle: Sensor for hsa-mir-208a) | 664 | 19.6 | 638 | – | – | –
UUUAGUUGCGGGCAGGAUAUGUAUUAAUAUACAUGAGGAUCACCCAUGUGCGGGUAUAACACCCGACAGAAGGGCCAAUCGCGAC [Laonerce - 5] (puzzle: Same State 2) | 28.3 | 302 | 389 | – | – | –
GGUCCAGCGAGAGCUGGACAAAAGCAUGUACAUGAGGAUCACCCAUGUCAUGUACAAGCUUUUUGCUCGUCUUAAAA [Mat - Sensor - JL mod - D88] (Eterna round: R96, puzzle: Sensor for hsa-mir-208a) | – | – | – | 556 | 12.9 | 486
GUGGAGGGUUGAGGAUAUUGAUUACAUAUGUUUAACAUGAGGAUCACCCAUGUGGGUUGCGGUUUCGAGAAGGUAGGUUGCUGG [salish99_SSNG2_r04_041] (Eterna round: R96, puzzle: Same State NG 2) | – | – | – | 196 | 79.5 | 132
GCGAAGAGGUAAGGAUAUUCAUGGCAUAGACAUGAGGAUCACCCAUGUAGGAGACGAAUUAGAAGGAAGAAGGUACCAGGACGC [AK SSNG2-V2-18] (Eterna round: R96, puzzle: Same State NG 2) | – | – | – | 137 | 111 | 187
UUAAUUAAUUAAUUAUACAUGAGGAUCACCCAUGUAAGUGAUCAGGAUAUCAGCUCGAAUAGAGCUGAGAAGGGAUACAUGUAA [SSNG3/13-A1] (Eterna round: R96, puzzle: Same State NG 3) | – | – | – | – | 148 | –
UAGUAUUAACGAGGAUAUAAUAUGUUCAAUUUUUUAUAUUGUUUACAUGAGGAUCACCCAUGUUAUUAGAAGGCGUAUGGGAUU [JR_SSNG2_Sub082] (Eterna round: R96, puzzle: Same State NG 2) | – | – | – | – | 50.9 | –
ACAUGAGGAUCACCCAUGUGAAAAGACCUAGAGGUGAAGCCGCAGGAUAUAUCACAAACGAGAAGAUAGAAGGGCGUACGCAUG [Eternabot solution 9] (Eterna round: R96, puzzle: Same State NG 3) | – | – | – | 89.7 | 60.5 | 72.1
AAAAGAAACAUGUACCUGAGUACAUGAAAACAUGAGGAUCACCCAUGUAACAAGCUGGGUGCUCGUCUUAUAAGAAA [JL pocket 1] (Eterna round: R96, puzzle: Sensor for hsa-mir-208a) | – | – | – | 137 | 22.3 | 77.7
CACCCAAAGGAAGGAUAUAGGGACUCGAGGACAACAUGAGGAUCACCCAUGUCCCGCCAUCGGCCUUAGAAGGUCCAAGGGAAC [Eternabot solution 7] (Eterna round: R96, puzzle: Same State NG 2) | – | – | – | 18.8 | 17.1 | 21.8
GCUCGCACGAUGACCCACAUGAGGAUCACCCAUGUGUGUGGGCAGGAUAUCUAGAUUAAGGAUGUAGAGAAGGGUUGAGCGAGC [SameState NG3 #24] (Eterna round: R96, puzzle: Same State NG 3) | – | – | – | 513 | 133 | 138
CGUCGUUUGAUAGGAUAUCGCUAUACAUGAGGAUCACCCAUGUUUACCACGCUGGUUUUUCAUUCCGAGAAGGAUUCUGAUGUU [salish99_SSNG02_r04_021] (Eterna round: R96, puzzle: Same State NG 2) | – | – | – | 34.7 | 26 | 36.1
AGCUAUUAAUCAGGAUAUGGUCACAUGAGGAUCACCCAUGUAUAGAUGAUAAAAUGUGGUCAAUACUAGAAGGGAUUGCUAACA [SameState NG2 #63] (Eterna round: R96, puzzle: Same State NG 2) | – | – | – | 433 | 266 | 386
CCGAUGGUAUACUAGGAUAUGGGCGCCCUUACAUGAGGAUCACCCAUGUUAUCACAAAUCCGCGGCCAGAAGGAGUUCAUGGGAG [Ustiririra] (Eterna round: R96, puzzle: Same State 2) | – | – | – | 165 | 173 | 138
GCCGCGUUUCGCGCCUACAUGAGGAUCACCCAUGUAUGUGGGCAGGAUAUCGUUUGCUUUGCAAACGAGAAGGGCUGUUGUGGC [salish99_SSNG3_R04_010] (Eterna round: R96, puzzle: Same State NG 3) | – | – | – | 19.7 | 21.2 | 30
AGUAGUGUAACAUGAGGAUCACCCAUGUAAGUAGAUGUAACCUAGGAUAUGGAUGAUAUGUUAGUCCAGAAGGAGGAUUGAAUA [JR_SSNG3_Sub037] (Eterna round: R96, puzzle: Same State NG 3) | – | – | – | 15.5 | 20.6 | 44.4
UUGCGGAAUUAAGGAUAUUGAGUACAUAUGUUUAACAUGAGGAUCACCCAUGUGGGUUGCGGUAUCGAGAAGGUAACUUACUAC [salish99_SSNG2_r04_803] (Eterna round: R96, puzzle: Same State NG 2) | – | – | – | 110 | 80.5 | 102
AGUCCAGCCUGAGCUGGACAAAAGCAUGUACAUGAGGAUCACCCAUGUUCAUGUACAGGCUUUUUGCUCGUCUUAAA [Zipper 52 - 7] (puzzle: Sensor for hsa-mir-208a) | 331 | 17.8 | 488 | – | – | –
AUCCUACAUGAGGAUCACCCAUGUGACGCCUCAAUAGGAUAUCGGGCCCACAGUCGGGAACGAGAAGGAUUGAAGC [Beatonce] (puzzle: Same State 1) | 70 | 170 | 669 | – | – | –
